Measurements reported in US20170015742A1 (published 2017).

Target: T1, mouse VEGF (PR-1578904) (mouse, UniProt Q00731 205-392)
T1 construct: also called mVEGF164
T1 chain: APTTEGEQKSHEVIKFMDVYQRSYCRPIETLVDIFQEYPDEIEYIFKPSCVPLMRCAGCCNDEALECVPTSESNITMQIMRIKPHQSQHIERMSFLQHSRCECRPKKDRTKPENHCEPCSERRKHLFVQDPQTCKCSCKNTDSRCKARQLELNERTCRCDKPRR
Test: SPR (Biacore), mAb captured by anti-human Fc, antigen injected
Procedure: Unreacted moieties on the biosensor surface were blocked with ethanolamine. For kinetic analysis, rate equations derived from the 1:1 Langmuir binding model were fitted simultaneously to multiple antigen injections (using global fit analysis) with the use of Scrubber 2 (BioLogic Software), Biacore Biaevaluation 4.0.1 software or Biacore T100 Evaluation software. Purified antibodies or DVD-Ig molecules were diluted in running buffer for capture across goat anti-human Fc reaction surfaces. Antibodies or DVD-Ig molecules to be captured as a ligand (1 μg/ml) were injected over reaction matrices at a flow rate of 10 μl/minute. During the assay, all measurements were referenced against the capture surface alone (i.e., with no captured antibody or DVD-Ig molecule). […] The equilibrium dissociation constant KD (M) of the reaction between antibodies and the target antigen was then calculated from the kinetic rate constants by the following formula: KD=Koff/Kₒₙ. Binding was recorded as a function of time and kinetic rate constants were calculated. In this assay, on-rates as fast as 10⁶M⁻¹s⁻¹ and off-rates as slow as 10⁻⁶ s⁻¹ could be measured.

B1: AB014 (Avastin), PR-1545939 (antibody, V domains shown)
VH: EVQLVESGGGLVQPGGSLRLSCAASGYTFTNYGMNWVRQAPGKGLEWVGWINTYTGEPTYAADFKRRFTFSLDTSKSTAYLQMNSLRAEDTAVYYCAKYPHYYGSSHWYFDVWGQGTLVTVSS
VL: DIQMTQSPSSLSASVGDRVTITCSASQDISNYLNWYQQKPGKAPKVLIYFTSSLHSGVPSRFSGSGSGTDFTLTISSLQPEDFATYYCQQYSTVPWTFGQGTKVEIK
notes: Anti-VEGF-A mAb
B1: no binding.
